Assay results reported in patent publication US20240425606A1, “ANTI-IL-11RA ANTIBODIES” (Lassen Therapeutics 1, Inc., priority 2021, published 2024).
“Also recorded” adds a separate entry of the source.

T1: hIL-11Rα (Homo sapiens, UniProt Q14626)
T1 sequence (Q14626 23-422): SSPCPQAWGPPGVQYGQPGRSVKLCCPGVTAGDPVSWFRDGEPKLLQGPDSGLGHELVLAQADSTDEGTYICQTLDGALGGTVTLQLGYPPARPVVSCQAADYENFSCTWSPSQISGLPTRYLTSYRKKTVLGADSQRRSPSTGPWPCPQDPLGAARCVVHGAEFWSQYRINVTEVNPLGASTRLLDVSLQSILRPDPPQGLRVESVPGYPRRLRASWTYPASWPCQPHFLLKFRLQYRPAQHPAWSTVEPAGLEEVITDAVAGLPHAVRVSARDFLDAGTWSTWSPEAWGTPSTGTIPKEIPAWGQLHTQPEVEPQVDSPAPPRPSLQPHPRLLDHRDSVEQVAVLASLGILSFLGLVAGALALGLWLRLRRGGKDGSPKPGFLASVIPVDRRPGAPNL

T2: hIL-1 IR (Homo sapiens, UniProt Q14626)
T2 sequence (Q14626 23-422): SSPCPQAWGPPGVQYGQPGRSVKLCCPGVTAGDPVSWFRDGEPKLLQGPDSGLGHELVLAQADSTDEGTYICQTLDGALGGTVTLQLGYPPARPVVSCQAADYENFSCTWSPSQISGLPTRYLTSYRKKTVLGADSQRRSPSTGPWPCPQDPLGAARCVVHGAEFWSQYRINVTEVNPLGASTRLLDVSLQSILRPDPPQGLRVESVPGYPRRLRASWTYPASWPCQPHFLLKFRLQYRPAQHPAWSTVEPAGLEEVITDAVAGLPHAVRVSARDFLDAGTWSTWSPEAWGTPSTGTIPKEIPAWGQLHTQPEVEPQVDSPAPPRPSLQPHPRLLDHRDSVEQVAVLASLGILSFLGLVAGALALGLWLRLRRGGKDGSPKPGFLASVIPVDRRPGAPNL


Experiments:
hIL-11Rα = target: T1, hIL-11Rα; test: Kinetic binding analysis by biolayer interferometry (protein G biosensors, Octet RED96e)
Description: Association was carried out in the presence of a 2-fold dilution series of hIL-11Rα and was allowed to proceed for 120 seconds; dissociation was measured for 300 to 1200 seconds.

[1] = tested on: IL-11 signaling in STAT3 Reporter (Luciferase)—HEK293 cell line; test: Cell-based STAT3 reporter (luciferase) assay for inhibiting IL-11 signaling; parameters: species or system human; conditions: compared with TS7 and 8E2
Description: Further testing of the lead mAbs was carried out using a cell-based reporter assay. IL-11 is reported to signal through the STAT3 and ERK pathways. Therefore, a STAT3 reporter cell line in which firefly luciferase gene expression is driven by STAT3 response elements located upstream of a minimal TATA promoter was selected to analyze mAb functional activity. In these cells, IL-11 can activate the endogenous STAT3 allowing it to bind to the STAT3 response elements, inducing transcription of the luciferase reporter gene and resulting in readily detectable luciferase expression. Antibodies to IL-11R which block IL-11 signaling should inhibit expression of IL-11 driven luciferase in these cells.
The STAT3 Reporter (Luciferase)—HEK293 cell line (BPS Bioscience, catalog #79800-P) was grown, passaged, and assayed as per manufacturer's protocols. Cells were added at 25,000 cells per well in a 96-well microtiter dish and incubated at 37° C. for 30-45 min. in 5% CO2 humidified air. Anti-IL-11R mAbs were added as a 3-fold dilution series in duplicate columns or rows, and plates were returned to the incubator for an additional 1 h at 37° C. after which 40 ng/mL IL-11 was added to each well to initiate the signal transduction cascade and luciferase production. Plates were incubated for 18-24 hours at 37° C. and luciferase was detected using a One-Step Luciferase Assay System (BPS Bioscience, cat. no. 60690-1) as per manufacturer's instructions.

hIL-1 IR [2] = target: T2, hIL-1 IR; test: Alternate biolayer interferometry assay (AHC biosensors) ranking mAbs 16-32 against mAb5; assay type: binding; conditions: for ka: association 120 s; for kd: dissociation 1200 s; for qualitative assessment: compared to mAb5
Text: A further series of antibodies were designed in which the residue at Kabat position 31 of the heavy chain was varied (mAbs 16-32). In this case an alternate biolayer interferometry assay was used to initially rank the antibodies compared to mAb5, the closest relative in sequence to mAbs 16-32. MAbs were loaded onto anti-human constant domain (AHC) biosensors (FortdBio) in 10× kinetics buffer consisting of PBS, 0.1% BSA, 0.02% Tween 20 for 120 s to achieve a spectral shift value of 0.8 to 1.2 nm. Association was carried out in the presence of 2-fold dilution series of hIL-1 IR and was allowed to proceed for 120 s. Dilution series started 10 nM. The dissociation in 10× kinetics buffer for 1200 s. Binding kinetic measurements were taken on an Octet RED96e instrument.

[3] = tested on: type VI collagen formation (PRO-C6) in fibrotic human PCLS; test: Fibrotic human precision-cut lung slice (PCLS) model, PRO-C6 biomarker of ECM remodeling; assay type: cell-based; conditions: 48 hours
Description: Studies were performed to evaluate the effect of the mAb5 antibody on biomarkers reflecting ECM remodeling in a fibrotic human precision-cut lung slice (PCLS) model. The anti-fibrotic effect was investigated at three different concentrations in human ex vivo lung tissue slices prepared from pulmonary fibrosis patients.
Tissue slices were prepared from the subpleural and central region of the fibrotic lung from two human end-stage donors with pulmonary fibrosis (IPF and secondary fibrosis) (see, for example, Hess et al., Toxicol In Vitro. 32:347-61, 2016). For both donors, lung tissue samples from two different regional areas (subpleural and central) were used to generate tissue cores used for PCLS. Adjacent cores were used to achieve serial PCLS for the analysis of one treatment as compared to medium treated PCLS from the same cores. This enables the comparison of densely packed fibrotic areas with fibrotic foci with less affected areas. To ensure the fibrotic status, clinical/demographic information for each patient is provided.
Each treatment was tested with three replicates for each lung region and for each donor.
Preparation and incubation of precision-cut lung slices. Lung lobes were canuled and filled with 37° C. warm 2% low-melting agarose/medium solution. Filled lobes were cooled on ice to polymerise agarose. Tissue cores with a diameter of 8 mm were prepared and cut into approximately 300 μm thick slices using a microtome (Krumdieck tissue slicer, Alabama Research and Development, Muniford, AL, USA or Vibratome OTS-5000, Science Services GmbH, Munich) in Earle's Balanced Salts Solution (EBSS). Tissue slices were incubated in Dulbecco's modified Eagle's medium/nutrient mixture F-12 Ham (DMEM) with L-glutamine and 15 mM HEPES without phenol red. Tissue slices were transferred into petri dishes and washed with DMEM for 2 hours. Medium was changed four times every 30 minutes in order to remove cell debris.
Two PCLS per well were left over night in 500 μL DMEM in 24-well plates for a final washing step. Next day, PCLS were treated with experimental treatments or controls (see Table E5) in 250 μl DMEM/F-12 culture medium for 48 hours under normal cell culture conditions (37° C., 5% CO2). Medium contained 100 units/mL penicillin and 100 μg/mL streptomycin and was not supplemented with fetal calf serum.
After incubation for 48 hours, supernatants were collected, proteinase inhibitor cocktail (0.2%) was added and samples were frozen to −80° C. Additionally, the two PCLS from each well were transferred to a 2 mL safe-lock tube, snap-frozen in liquid nitrogen immediately, and stored at −80° C. Samples from the three replicates for each condition were not pooled.
Extracellular matrix remodeling evaluation. Biomarkers that reflect ECM remodeling were assessed in supernatant by Nordic Bioscience using the following competitive ELISA: PRO-C6 (C-terminal of type VI collagen C5 domain released as type VI collagen is incorporated into the matrix; measured on mesoscale platform [hsPRO-C6]): Reflects type VI collagen formation. Type VI collagen is a beaded filament collagen mainly found in the interface between the interstitial matrix and the basement membrane.
Statistics. […] Pooled data are presented as percentage of the “no treatment” control, calculated for individual regions and donors. Statistical significant differences were evaluated on pooled data by Kruskal-Wallis with Dunn's multiple comparisons test, comparing to the “no treatment” control. […]

hIL-1 IR [4] = target: T2, hIL-1 IR; test: Alternate biolayer interferometry assay (AHC biosensors) ranking mAbs 16-32 against mAb5; assay type: binding; conditions: compared to mAb5

binding affinity (in words) (hIL-11Rα; beyond the ability of the instrument to determine an accurate off-rate (kd)) | ka (hIL-11Rα; protein G biosensors, association 120 seconds) | kd (hIL-11Rα; protein G biosensors, dissociation 300 to 1200 seconds) | ka (hIL-1 IR [2]) | kd (hIL-1 IR [2]) | qualitative assessment (hIL-1 IR [2]) | potency by more detailed kinetic measurements (in words) (hIL-1 IR [4]) | Molecule | relative potency at inhibiting IL-11 signaling (in words) [1] | effects on ECM remodeling ([3]; fibrotic human PCLS) | dose dependence of PRO-C6 reduction ([3]; mAb5 0.3, 3.0, 30 μg/mL) | median levels of PRO-C6 compared to the no treatment (media) control ([3]; pooled data all donors and regions, mAb5 0.3, 3.0, 30 μg/mL, nintedanib 1 μM, isotype control 30 μg/mL)
very high binding affinity | 63700 M⁻¹ s⁻¹ | <1e-07 s⁻¹ | 490000 M⁻¹ s⁻¹ | 2.5e-05 s⁻¹ | – | – | mAb5: anti-IL-11Rα antibody; VH SEQ ID NO: 201, VL SEQ ID NO: 202; human IgG4 (S228P), kappa light chain (antibody, V domains shown, human IgG4 S228P and kappa constant regions; mAb5 VH Chain; mAb5 VL Chain, anti-IL-11Rα antibody; human IgG4 (S228P), kappa light chain) VH: EVQLLESGGGLVQPGGSLRLSCAASGFTFSWYSMTWVRQAPGKGLEWVSSIVPYGDLTQYADSVKGRFTISRDNSKNTLYLQMNSLRAEDTAVYYCAKGPGWGSFDLWGRGTLVTVSS VL: DIQMTQSPSSLSASVGDRVTITCQASQDINNYLNWYQQKPGKAPKLLIYDASNLQTGVPSRFSGSGSGTDFTFTISSLQPEDIATYYCQQHESQSPTFGPGTKVDIK | more potent at inhibiting IL-11 signaling than either of TS7 or 8E2 | better effects on ECM remodeling relative to the approved therapy nintedanib | dose-dependent manner; also recorded: dose-related reductions | decreased
– | – | – | 720000 M⁻¹ s⁻¹ | off-scale | improved/ | further improved potency | mAb23: anti-IL-11Rα antibody; VH SEQ ID NO: 237, VL SEQ ID NO: 238; heavy chain Kabat position 31 variant of mAb5 (antibody, V domains shown, mAb23 VH Chain; mAb23 VL Chain, anti-IL-11Rα antibody; heavy chain Kabat position 31 variant of mAb5) VH: EVQLLESGGGLVQPGGSLRLSCAASGFTFSKYSMTWVRQAPGKGLEWVSSIVPYGDLTQYADSVKGRFTISRDNSKNTLYLQMNSLRAEDTAVYYCAKGPGWGSFDLWGRGTLVTVSS VL: DIQMTQSPSSLSASVGDRVTITCQASQDINNYLNWYQQKPGKAPKLLIYDASNLQTGVPSRFSGSGSGTDFTFTISSLQPEDIATYYCQQHESQSPTFGPGTKVDIK | – | – | – | –
– | – | – | 750000 M⁻¹ s⁻¹ | off-scale | improved/ | further improved potency | mAb21: anti-IL-11Rα antibody; VH SEQ ID NO: 233, VL SEQ ID NO: 234; heavy chain Kabat position 31 variant of mAb5 (antibody, V domains shown, mAb21 VH Chain; mAb21 VL Chain, anti-IL-11Rα antibody; heavy chain Kabat position 31 variant of mAb5) VH: EVQLLESGGGLVQPGGSLRLSCAASGFTFSHYSMTWVRQAPGKGLEWVSSIVPYGDLTQYADSVKGRFTISRDNSKNTLYLQMNSLRAEDTAVYYCAKGPGWGSFDLWGRGTLVTVSS VL: DIQMTQSPSSLSASVGDRVTITCQASQDINNYLNWYQQKPGKAPKLLIYDASNLQTGVPSRFSGSGSGTDFTFTISSLQPEDIATYYCQQHESQSPTFGPGTKVDIK | – | – | – | –
– | – | – | 610000 M⁻¹ s⁻¹ | 1.8e-05 s⁻¹ | improved/ | further improved potency | mAb29: anti-IL-11Rα antibody; VH SEQ ID NO: 249, VL SEQ ID NO: 250; heavy chain Kabat position 31 variant of mAb5 (antibody, V domains shown, mAb29 VH Chain; mAb29 VL Chain, anti-IL-11Rα antibody; heavy chain Kabat position 31 variant of mAb5) VH: EVQLLESGGGLVQPGGSLRLSCAASGFTFSSYSMTWVRQAPGKGLEWVSSIVPYGDLTQYADSVKGRFTISRDNSKNTLYLQMNSLRAEDTAVYYCAKGPGWGSFDLWGRGTLVTVSS VL: DIQMTQSPSSLSASVGDRVTITCQASQDINNYLNWYQQKPGKAPKLLIYDASNLQTGVPSRFSGSGSGTDFTFTISSLQPEDIATYYCQQHESQSPTFGPGTKVDIK | – | – | – | –
– | – | – | 690000 M⁻¹ s⁻¹ | off-scale | improved/ | further improved potency | mAb31: anti-IL-11Rα antibody; VH SEQ ID NO: 253, VL SEQ ID NO: 254; heavy chain Kabat position 31 variant of mAb5 (antibody, V domains shown, mAb31 VH Chain; mAb31 VL Chain, anti-IL-11Rα antibody; heavy chain Kabat position 31 variant of mAb5) VH: EVQLLESGGGLVQPGGSLRLSCAASGFTFSVYSMTWVRQAPGKGLEWVSSIVPYGDLTQYADSVKGRFTISRDNSKNTLYLQMNSLRAEDTAVYYCAKGPGWGSFDLWGRGTLVTVSS VL: DIQMTQSPSSLSASVGDRVTITCQASQDINNYLNWYQQKPGKAPKLLIYDASNLQTGVPSRFSGSGSGTDFTFTISSLQPEDIATYYCQQHESQSPTFGPGTKVDIK | – | – | – | –
